{"source": "paper doi:10.1101/2025.10.17.683123", "target": "HCMV Pr S225M (human cytomegalovirus) (UniProt P16753)", "assay": "SEC-MALS; HCMV Pr alone on SEC, eluate into Wyatt Dawn Pro and Optilab; concentration not given", "data": [{"substance": "HCMV Pr S225M (from UniProt P16753) (enzyme)", "values": [{"measurement": "stoichiometry N", "value": 2}]}]}
